Experiments:
[1] = molecular target: endogenous SET (mouse (endogenous in adult mouse brain slices)) (UniProt Q9EQU5); test: co-IP; lysates of adult mouse brain slices incubated 5 h 30 min with or without recombinant SET (4 μM); IP with polyclonal anti-SET (recognises endogenous and recombinant SET) and protein A Sepharose, overnight 4°C; Hepes 10 mM, NaCl 150 mM, CaCl2 2 mM, Triton X-100 1% pH 7.4; blot for total PP2A C subunit, then methyl-PP2A after stripping
[2] = molecular target: PP2A (total PP2A, detected with an anti-PP2A C subunit antibody) (mouse (endogenous in adult mouse brain slices)) (UniProt P63330)
UniProt P63330, sequence (P63330 whole entry): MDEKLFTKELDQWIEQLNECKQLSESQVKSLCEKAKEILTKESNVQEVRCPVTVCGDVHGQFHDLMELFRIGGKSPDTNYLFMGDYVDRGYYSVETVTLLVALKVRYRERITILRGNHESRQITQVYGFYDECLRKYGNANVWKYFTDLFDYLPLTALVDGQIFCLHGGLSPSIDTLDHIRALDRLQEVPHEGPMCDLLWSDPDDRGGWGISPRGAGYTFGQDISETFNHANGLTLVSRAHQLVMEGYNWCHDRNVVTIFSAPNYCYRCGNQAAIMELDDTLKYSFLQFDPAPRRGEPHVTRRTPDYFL

[3] = molecular target: PP2A (total PP2A, detected with an anti-PP2A C subunit antibody) (mouse (endogenous in adult mouse brain slices)) (UniProt P63330); remark: listed apart in the source

UniProt Q9EQU5, sequence (Q9EQU5 whole entry): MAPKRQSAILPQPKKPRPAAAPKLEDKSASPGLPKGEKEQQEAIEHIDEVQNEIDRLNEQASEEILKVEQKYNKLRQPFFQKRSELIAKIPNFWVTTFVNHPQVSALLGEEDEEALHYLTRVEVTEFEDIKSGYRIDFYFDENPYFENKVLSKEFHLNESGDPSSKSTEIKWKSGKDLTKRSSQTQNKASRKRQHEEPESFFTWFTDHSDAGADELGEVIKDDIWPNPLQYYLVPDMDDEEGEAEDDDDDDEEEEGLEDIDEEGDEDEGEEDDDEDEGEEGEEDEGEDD

Substance | ratio of methyl-PP2A to total PP2A co-immunoprecipitated with SET [1] | PP2A activity (release of p-nitrophenol) on PP2A immunoprecipitated from brain slices containing internalized recombinant SET, percent of control [2] | ratio of methyl-PP2A to total PP2A by western blotting of brain slice lysates after 5 h 30 min of recombinant SET internalization, percent of the control ratio (% of control ratio) [3]
methylated PP2A (from UniProt P63330 1-309) (enzyme) | 2.18 |  | 
recombinant HA-tagged SET protein fused to the Penetratin vector (from UniProt Q01105 1-290) (natural protein) |  | 84 % of control | 83.6

Reference: paper PMC4086270
